In US20130202591A1 (ANAPTYSBIO, published 2013):
Numbering of substitutions follows the chain as printed.

B1: APE755-1574/773 (antibody, V domains shown)
VH: EVQLVESGGGLVQPGGSLRLSCAASGFTFSNHWMNWVRQTPGKGLEWVAAINEDGSEKYYVGSVKVRFTISRDNAKNSLYLQMNSLRVEDTAVYYCARDYYDILTRDYYDILTDYYIHYWYFDLWGRGTLVTVSS
VL: not shown
notes: Human IgG (detected with anti-human IgG)
B2: APE857-1622/773 (antibody, V domains shown)
VH: B1 VH with A97V
VL: not shown
notes: as for B1
B3: APE253-771/773 (antibody, V domains shown)
VH: EVQLVESGGGLVQPGGSLRLSCAASGFTFSSHWMSWVRQAPGKGLEWVANIKEDGSEKYYVDSVKGRFTISRDNAKNSLYLQMNSLRAEDTAVYYCARDYYDILTDYYIHYWYFDLWGRGTLVTVSS
VL: not shown
notes: Human IgG; also called Well 10
B4: APE265-817/773 (antibody, V domains shown)
VH: B3 VH with S31N, S35N, N50A, K52N, D62G, A88V
VL: not shown
notes: also called Well 11
B5: APE318-878/773 (antibody, V domains shown)
VH: B3 VH with S31D, H32Y, S35D, K52R
VL: not shown
notes: as for B1
B6: APE319-887/773 (antibody, V domains shown)
VH: B3 VH with S31D, H32Y, S35D, N50S, K52R
VL: not shown
notes: as for B1
B7: APE320-847/773 (antibody, V domains shown)
VH: B3 VH with N50S
VL: not shown
notes: as for B1
B8: APE321-844/773 (antibody, V domains shown)
VH: B3 VH with H32Y, N50S, E53Q
VL: not shown
notes: Human IgG; also called Well 12
B9: APE422-1141/773 (antibody, V domains shown)
VH: B3 VH with S31N, S35N, A40T, N50A, K52N, D62G, G66V, A88V
VL: not shown
notes: as for B1
B10: APE467-1138/773 (antibody, V domains shown)
VH: B3 VH with A40T, N50S, G66V
VL: not shown
notes: as for B1
B11: APE470-1150/773 (antibody, V domains shown)
VH: B3 VH with S31D, H32F, S35D
VL: not shown
notes: as for B1
B12: APE480-1261/773 (antibody, V domains shown)
VH: B3 VH with S31D, H32F, S35D, A40T, N50S, G66V
VL: not shown
notes: as for B1
B13: APE490-1263/773 (antibody, V domains shown)
VH: B3 VH with S31D, H32F, S35D, A40T, N50S, D62G, G66V, A88V
VL: not shown
notes: as for B1
B14: APE498-1330/773 (antibody, V domains shown)
VH: B3 VH with S31N, S35N, A40T, N50A, K52N, D62G, G66V, A88V, A97T
VL: not shown
notes: as for B1
B15: APE499-1332/773 (antibody, V domains shown)
VH: B3 VH with S31N, S35N, A40T, N50A, K52N, D62G, G66V, T69I, A88V
VL: not shown
notes: as for B1
B16: APE508-1266/773 (antibody, V domains shown)
VH: B3 VH with S31N, S35N, A40T, N50A, K52N, D62G, G66V, A88V, A97V
VL: not shown
notes: as for B1
B17: APE545-1346/773 (antibody, V domains shown)
VH: B3 VH with A40T, N50S, D62G, G66V, T69I, A88V
VL: not shown
notes: as for B1
B18: APE744-1266/1540 (antibody, V domains shown)
VH: B3 VH with S31N, S35N, A40T, N50A, K52N, D62G, G66V, A88V, A97V
VL: not shown
notes: as for B1
B19: APE860-1723/773 (antibody, V domains shown)
VH: B3 VH with S30N, S31N, S35N, A40T, N50A, K52N, D62G, G66V, A88V, A97V
VL: not shown
notes: as for B1
B20: 546/773 (antibody, V domains shown)
VH: B3 VH with H32Y, E53Q
VL: not shown
notes: IgG captured by anti-human Fc; also called Well 9
B21: 843/773 (antibody, V domains shown)
VH: B3 VH with S31N, H32Y, S35N, N50S, K52N, E53Q, D62G, A88V, A97V
VL: not shown
notes: IgG captured by anti-human Fc; also called Well 14
B22: antibody with heavy chain SEQ ID NO: 1 and light chain SEQ ID NO: 29 (antibody, V domains shown)
VH: B3 VH with H32Y, E53Q
VL: not shown
notes: IgG captured by anti-human Fc; also called Well 2
B23: antibody with heavy chain SEQ ID NO: 2 and light chain SEQ ID NO: 29 (antibody, V domains shown)
VH: B3 VH
VL: not shown
notes: IgG captured by anti-human Fc; also called Well 3
B24: antibody with heavy chain SEQ ID NO: 4 and light chain SEQ ID NO: 29 (antibody, V domains shown)
VH: B3 VH with S31N, S35N, N50A, K52N, D62G, A88V
VL: not shown
notes: IgG captured by anti-human Fc; also called Well 4
B25: antibody with heavy chain SEQ ID NO: 9 and light chain SEQ ID NO: 29 (antibody, V domains shown)
VH: B3 VH with S31N, H32Y, S35N, N50S, K52N, E53Q, D62G, A88V, A97V
VL: not shown
notes: IgG captured by anti-human Fc; also called Well 7
B26: antibody with heavy chain SEQ ID NO: 30 and light chain SEQ ID NO: 24 (antibody, V domains shown)
VH: B3 VH with S31N, H32Y, S35N, N50A, K52N, E53Q, D62G, A88V, A97V
VL: not shown
notes: IgG captured by anti-human Fc; also called Well 8
B27: antibody with heavy chain SEQ ID NO: 30 and light chain SEQ ID NO: 25 (antibody, V domains shown)
VH: B3 VH with S31N, H32Y, S35N, N50A, K52N, E53Q, D62G, A88V, A97V
VL: not shown
notes: IgG captured by anti-human Fc; also called Well 15
B28: antibody with heavy chain SEQ ID NO: 6 and light chain SEQ ID NO: 27 (antibody, V domains shown)
VH: B3 VH with H32Y, N50S, E53Q
VL: not shown
notes: IgG captured by anti-human Fc; also called Well 20
B29: MP4-11 (antibody, V domains shown)
VH: B3 VH with S31N, H32Y, E53Q, A97V
VL: not shown
notes: Captured by anti-human Fc
B30: MP4-14 (antibody, V domains shown)
VH: B3 VH with H32Y, N50A, K52N, E53Q
VL: not shown
notes: Captured by anti-human Fc
B31: MP4-16 (antibody, V domains shown)
VH: B3 VH with S31N, H32Y, N50A, K52N, E53Q, D62G
VL: not shown
notes: Captured by anti-human Fc
B32: MP4-17 (antibody, V domains shown)
VH: B3 VH with S31N, H32Y, E53Q
VL: not shown
notes: Captured by anti-human Fc
B33: MP4-20 (antibody, V domains shown)
VH: B3 VH with S31N, H32Y, N50A, E53Q, D62G
VL: not shown
notes: Captured by anti-human Fc
B34: MP4-21 (antibody, V domains shown)
VH: B3 VH with S31N, H32Y, S35N, K52N, E53Q, D62G
VL: not shown
notes: Captured by anti-human Fc
B35: MP4-22 (antibody, V domains shown)
VH: B3 VH with S31N, H32Y, N50A, E53Q, A97V
VL: not shown
notes: Captured by anti-human Fc
B36: MP4-23 (antibody, V domains shown)
VH: B3 VH with H32Y, S35N, N50A, E53Q, D62G, A97V
VL: not shown
notes: Captured by anti-human Fc
B37: 847/842 (antibody, V domains shown)
VH: B3 VH with N50S
VL: not shown
notes: Captured by anti-human Fc
B38: 878/842 (antibody, V domains shown)
VH: B3 VH with S31D, H32Y, S35D, K52R
VL: not shown
notes: Captured by anti-human Fc
B39: 887/841 (antibody, V domains shown)
VH: B3 VH with S31D, H32Y, S35D, N50S, K52R
VL: DIQMTQSPSSLSASVGDRVTITCRASQSISSYLNWYQQKPGKAPKLLIYAASSLQSGVPSRFSGSGSGTDFTLTISSLQPEDFAVYYCQQYGSSPLTFGGGTKVEIKR
notes: Captured by anti-human Fc

Target: T1, human IL-17 (human, UniProt Q16552 24-155)
T1 construct: also called hIL-17; IL-17A
Experiment: KINEXA 3000, solution equilibrium, free antibody captured on human IL-17a beads

Row | Kd | Binder
1 | 0.0049 nM | B1
2 | 0.0048 nM | B2
3 | ~60 nM | B3
4 | 0.322 nM | B4
5 | 14.2 nM | B5
6 | 6.1 nM | B6
7 | 2.5 nM | B7
8 | 9.4 nM | B8
9 | 0.067 nM | B9
10 | 0.374 nM | B10
11 | 6.9 nM | B11
12 | 1.2 nM | B12
13 | 0.948 nM | B13
14 | 0.126 nM | B14
15 | 0.092 nM | B15
16 | 0.043 nM | B16
17 | 0.27 nM | B17
18 | 0.875 nM | B18
19 | 0.049 nM | B19

Target: T1, human IL-17
Experiment: Average KINEXA values

Row | koff | kon | Binder
20 | 5.9e-06 s⁻¹ | 1.2e+06 M⁻¹ s⁻¹ | B1
21 | 2.4e-05 s⁻¹ | 360000 M⁻¹ s⁻¹ | B9
22 | 1.8e-05 s⁻¹ | 418000 M⁻¹ s⁻¹ | B16

Target: T2, IL-17 antigen (APE349) linked to wasabi fluorescent protein (WFP) (labeled with Eu3+-TBP-NHS Cryptate)
T2 construct: also called labeled antigen
Experiment: HTRF competition against the labelled second reference antibody

Row | binding result | Binder
23 | binds | B16

Target: T3, human Myc-IL-17a (APE280) (human, UniProt Q16552 24-155, limits assumed)
T3 construct: not shown: Myc tag
Experiment: competition ELISA, plate-coated myc-IL-17a, biotinylated IL-17RA as competitor, IC50 comparison

Row | fold potency in blocking IL-17/IL-17RA interaction against the first reference anti-IL-17a antibody | Binder
24 | 40 fold | B1

Target: T1, human IL-17
Experiment: cell-based or functional assay

Row | IL-6 and IL-8 release from IL-17-stimulated primary human RA synovial fibroblasts, potency against the reference anti-IL-17a antibodies | Binder
25 | 5 fold | B1

Target: T3, human Myc-IL-17a (APE280)
Experiment: cell-based or functional assay

Row | IL-8 release from human IL-17-stimulated cell lines, potency against the first reference anti-IL17a antibody | Binder
26 | 2 fold | B1

Target: T1, human IL-17
Experiment: SPR (BIACORE A100), IgG from transfection supernatant captured by anti-human Fc on CM5 chip, human IL-17 flowed over; 1:1 model with mass transport

Row | Kd | Binder
27 | > 10 nM | B20
28 | < 1 nM | B21
29 | < 1 nM | B4
30 | < 1 nM | B8
31 | > 10 nM | B22
32 | > 10 nM | B23
33 | < 1 nM | B24
34 | > 10 nM | B25
35 | < 1 nM | B26
36 | < 1 nM | B27
37 | > 10 nM | B28

Target: T1, human IL-17
Experiment: SPR (BIACORE), antibody captured by anti-human Fc, antigen in flow; grade: ++ strong binding, + binding, +/- close to background;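 note: antigen injected at two-fold dilutions from 50 nM over captured antibody at 30 µL/min, dissociation followed for 10 min, kinetics fitted with a 1:1 mass-transport model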

Row | binding result | Binder
38 | binds | B29
39 | binds | B30
40 | binds | B31
41 | binds | B32
42 | binds | B33
43 | binds | B34
44 | binds | B35
45 | binds | B36
46 | binds | B37
47 | binds | B38
48 | binds | B39

Target: T3, human Myc-IL-17a (APE280)
Experiment: competition ELISA: plate coated with myc-IL-17a (APE280), antibody titrated against biotinylated IL-17RA (sheet: 2.1 nM, overnight incubation), bound IL-17RA detected with avidin-HRP, OD450 as % of no antibody

Row | IC50 | Binder
49 | 0.34 nM | B1
50 | 1.6 nM | B16
